Source: patent US20220356229A1 (published 2022)

Experiments:
[1] = biological target: SARS-CoV-2 Spike protein (wild type) (SARS-CoV-2, UniProt P0DTC2 14-1208)
[2] = biological target: SARS-CoV-2 Spike protein, wild type, full length (SARS-CoV-2, UniProt P0DTC2 14-1208)
[3] = biological target: SARS-CoV-2 Spike (S) protein, wild type, full length (SARS-CoV-2, UniProt P0DTC2 14-1273)

B1: anti-SARS-CoV-2 antibody 278 (antibody, V domains shown)
VH: QVQLVQSGAEVKKPGASVKVSCKASGYTFTSYYMHWVRQAPGQGLEWMGIINPSGGSTSYAQKFQGRVTMTRDTSTSTVYMELSSLRSEDTAVYYCARDHSNADPYYDFWSGYYTRTYYYGMDVWGQGTTVTVSS
VL: not shown
- Kd [1]: 4.28 nM

B2: antibody 474 (antibody, V domains shown)
VH: EVQLVESGGGLVQPGGSLRLSCAASGFTFSSYWMHWVRQAPGKGLVWVSRINSDGSSTSYADSVKGRFTISRDNAKNTLYRQMNSLRAEDTAVYYCALGPLDIVGSYYYYGMDVWGQGTTVTVSS
VL: NFMLTQPHSVSESPGKTVTISCTGSSGSIASNYVQWYQQRPGSAPTTVIYEDNQRPSGVPDRFSGSIDSSSNSASLTISGLKTEDEADYYCQSYDSSNQDVVFGGGTKLTVL
- binding signal (fold over isotype control) [2]: 1.47 fold over isotype

B3: antibody 377 (antibody, V domains shown)
VH: EVQLVESGGGLVKPGGSLRLSCATSGFTFRTYSMNWVRQAPGKGLEWVSSITTSRNYIYYADSVRGRFTISGDNANNSLYLQMNSLRAEDTAVYYCARVRFVRDTRKPYYFDFWGQGTLVTVSS
VL: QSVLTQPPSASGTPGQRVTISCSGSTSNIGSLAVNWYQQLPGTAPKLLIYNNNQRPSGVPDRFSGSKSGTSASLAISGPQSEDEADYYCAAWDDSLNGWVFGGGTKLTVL
- fold over isotype (median fluorescence intensity) [3]: 0.78 fold over isotype

B4: anti-SARS-CoV-2 antibody 307 (antibody, V domains shown)
VH: QVQLVESGGGVVQPGRSLRLSCAASGFTFSSYGMHWVRQAPGKGLEWVAVIWYDGSNKYYADSVKGRFTISRDNSKNTLYLQMNSLRAEDTAVYYCAKGYTWDYYYYGMDVWGQGTTVTVSS
VL: not shown
- kon [1]: 101000 M⁻¹ s⁻¹
